The Human Domainome abundance scans (Beltran et al. 2025)
± gives the uncertainty stated by the source.

B1: SWI/SNF-related matrix-associated actin-dependent regulator of chromatin subfamily B member 1, residues 181 to 248; numbered along this chain, Q12824 (parent)
chain: SQPEVLVPIRLDMEIDGQKLRDAFTWNMNEKLMTPEMFSEILCDDLDLNPLTFVPAIASAIRQQIESY

Variants of: B1
Test: abundance fitness (aPCA) (normalised: wild type 0, dead -1); higher = more abundant; growth selection in yeast, the domain comes from the species named
Settings: Homo sapiens

Q: With SQPEVLVPIRLGMEIDGQKLRDAFTWNMNEKLMTPEMFSEILCDDLDLNPLTFVPAIASAIRQQIESY [D12G] as the variant, how does the abundance fitness read?
A: -0.264 ± 0.5

Q: With SQPEVLVPIRLEMEIDGQKLRDAFTWNMNEKLMTPEMFSEILCDDLDLNPLTFVPAIASAIRQQIESY [D12E] as the variant, how does the abundance fitness read?
A: -0.078 ± 0.15

Q: With SQPEVLVPIRLFMEIDGQKLRDAFTWNMNEKLMTPEMFSEILCDDLDLNPLTFVPAIASAIRQQIESY [D12F] as the variant, how does the abundance fitness read?
A: -0.73 ± 0.24

Q: For SQPEVLVPIRLVMEIDGQKLRDAFTWNMNEKLMTPEMFSEILCDDLDLNPLTFVPAIASAIRQQIESY [D12V], which abundance fitness is on record?
A: -0.646 ± 0.41

Q: With SQPEVLVPIRLSMEIDGQKLRDAFTWNMNEKLMTPEMFSEILCDDLDLNPLTFVPAIASAIRQQIESY [D12S] as the variant, how does the abundance fitness read?
A: -0.474 ± 0.21

Q: Which abundance fitness does the source give for SQPEVLVPIRLDQEIDGQKLRDAFTWNMNEKLMTPEMFSEILCDDLDLNPLTFVPAIASAIRQQIESY [M13Q] here?
A: -0.717 ± 0.34

Q: With SQPEVLVPIRLDLEIDGQKLRDAFTWNMNEKLMTPEMFSEILCDDLDLNPLTFVPAIASAIRQQIESY [M13L] as the variant, how does the abundance fitness read?
A: -0.089 ± 0.22

Q: With SQPEVLVPIRLDREIDGQKLRDAFTWNMNEKLMTPEMFSEILCDDLDLNPLTFVPAIASAIRQQIESY [M13R] as the variant, how does the abundance fitness read?
A: -0.703 ± 0.23

Q: For SQPEVLVPIRLDTEIDGQKLRDAFTWNMNEKLMTPEMFSEILCDDLDLNPLTFVPAIASAIRQQIESY [M13T], which abundance fitness is on record?
A: -0.638 ± 0.34

Q: With SQPEVLVPIRLDDEIDGQKLRDAFTWNMNEKLMTPEMFSEILCDDLDLNPLTFVPAIASAIRQQIESY [M13D] as the variant, how does the abundance fitness read?
A: -0.944 ± 0.44

Q: For SQPEVLVPIRLDIEIDGQKLRDAFTWNMNEKLMTPEMFSEILCDDLDLNPLTFVPAIASAIRQQIESY [M13I], which abundance fitness is on record?
A: -0.149 ± 0.29

Q: Which abundance fitness does the source give for SQPEVLVPIRLDGEIDGQKLRDAFTWNMNEKLMTPEMFSEILCDDLDLNPLTFVPAIASAIRQQIESY [M13G] here?
A: -0.718 ± 0.25

Q: With SQPEVLVPIRLDVEIDGQKLRDAFTWNMNEKLMTPEMFSEILCDDLDLNPLTFVPAIASAIRQQIESY [M13V] as the variant, how does the abundance fitness read?
A: -0.214 ± 0.17

Q: For SQPEVVVPIRLDMEIDGQKLRDAFTWNMNEKLMTPEMFSEILCDDLDLNPLTFVPAIASAIRQQIESY [L6V], which abundance fitness is on record?
A: -0.221 ± 0.18

Q: Which abundance fitness does the source give for SQPEVWVPIRLDMEIDGQKLRDAFTWNMNEKLMTPEMFSEILCDDLDLNPLTFVPAIASAIRQQIESY [L6W] here?
A: -0.152 ± 0.39

Q: Which abundance fitness does the source give for SQPEVYVPIRLDMEIDGQKLRDAFTWNMNEKLMTPEMFSEILCDDLDLNPLTFVPAIASAIRQQIESY [L6Y] here?
A: -0.346 ± 0.29

Q: For SQPEVLVPIYLDMEIDGQKLRDAFTWNMNEKLMTPEMFSEILCDDLDLNPLTFVPAIASAIRQQIESY [R10Y], which abundance fitness is on record?
A: 0.138 ± 0.29

Q: With SQPEVLVPITLDMEIDGQKLRDAFTWNMNEKLMTPEMFSEILCDDLDLNPLTFVPAIASAIRQQIESY [R10T] as the variant, how does the abundance fitness read?
A: 0.135 ± 0.055

Q: With SQPEVLVPIELDMEIDGQKLRDAFTWNMNEKLMTPEMFSEILCDDLDLNPLTFVPAIASAIRQQIESY [R10E] as the variant, how does the abundance fitness read?
A: 0.065 ± 0.13

Q: For SQPEVLVPISLDMEIDGQKLRDAFTWNMNEKLMTPEMFSEILCDDLDLNPLTFVPAIASAIRQQIESY [R10S], which abundance fitness is on record?
A: -0.444 ± 0.18

Q: With SQPEVLVPIQLDMEIDGQKLRDAFTWNMNEKLMTPEMFSEILCDDLDLNPLTFVPAIASAIRQQIESY [R10Q] as the variant, how does the abundance fitness read?
A: 0.076 ± 0.083

Q: With SQPEVLVPIVLDMEIDGQKLRDAFTWNMNEKLMTPEMFSEILCDDLDLNPLTFVPAIASAIRQQIESY [R10V] as the variant, how does the abundance fitness read?
A: -0.024 ± 0.079

Q: Which abundance fitness does the source give for SQPEVLVPILLDMEIDGQKLRDAFTWNMNEKLMTPEMFSEILCDDLDLNPLTFVPAIASAIRQQIESY [R10L] here?
A: -0.193 ± 0.11

Q: Which abundance fitness does the source give for SQPEVLVPIMLDMEIDGQKLRDAFTWNMNEKLMTPEMFSEILCDDLDLNPLTFVPAIASAIRQQIESY [R10M] here?
A: -0.273 ± 0.28

Q: Which abundance fitness does the source give for SQPEVLVPINLDMEIDGQKLRDAFTWNMNEKLMTPEMFSEILCDDLDLNPLTFVPAIASAIRQQIESY [R10N] here?
A: -0.03 ± 0.31

Q: For SQPEVLVPIWLDMEIDGQKLRDAFTWNMNEKLMTPEMFSEILCDDLDLNPLTFVPAIASAIRQQIESY [R10W], which abundance fitness is on record?
A: -0.196 ± 0.1

Q: For SQPEVLVPIPLDMEIDGQKLRDAFTWNMNEKLMTPEMFSEILCDDLDLNPLTFVPAIASAIRQQIESY [R10P], which abundance fitness is on record?
A: -0.386 ± 0.27

Q: Which abundance fitness does the source give for SQPEVLVPLRLDMEIDGQKLRDAFTWNMNEKLMTPEMFSEILCDDLDLNPLTFVPAIASAIRQQIESY [I9L] here?
A: -0.989 ± 0.28

Q: With SQPEVLVPFRLDMEIDGQKLRDAFTWNMNEKLMTPEMFSEILCDDLDLNPLTFVPAIASAIRQQIESY [I9F] as the variant, how does the abundance fitness read?
A: -0.791 ± 0.23

Q: With SQPEVLVPARLDMEIDGQKLRDAFTWNMNEKLMTPEMFSEILCDDLDLNPLTFVPAIASAIRQQIESY [I9A] as the variant, how does the abundance fitness read?
A: -0.784 ± 0.11

Q: Which abundance fitness does the source give for SQPEVLVPSRLDMEIDGQKLRDAFTWNMNEKLMTPEMFSEILCDDLDLNPLTFVPAIASAIRQQIESY [I9S] here?
A: -1.05 ± 0.32

Q: For SQPEVLVPGRLDMEIDGQKLRDAFTWNMNEKLMTPEMFSEILCDDLDLNPLTFVPAIASAIRQQIESY [I9G], which abundance fitness is on record?
A: -0.762 ± 0.18

Q: With SQPEVLVPTRLDMEIDGQKLRDAFTWNMNEKLMTPEMFSEILCDDLDLNPLTFVPAIASAIRQQIESY [I9T] as the variant, how does the abundance fitness read?
A: -0.701 ± 0.21

Q: Which abundance fitness does the source give for SQPEVLVPQRLDMEIDGQKLRDAFTWNMNEKLMTPEMFSEILCDDLDLNPLTFVPAIASAIRQQIESY [I9Q] here?
A: -0.868 ± 0.21

Q: With SQPEVLVPHRLDMEIDGQKLRDAFTWNMNEKLMTPEMFSEILCDDLDLNPLTFVPAIASAIRQQIESY [I9H] as the variant, how does the abundance fitness read?
A: -0.89 ± 0.25

Q: For SQPEVLVPRRLDMEIDGQKLRDAFTWNMNEKLMTPEMFSEILCDDLDLNPLTFVPAIASAIRQQIESY [I9R], which abundance fitness is on record?
A: -1.03 ± 0.23

Q: For SQPEVLVPDRLDMEIDGQKLRDAFTWNMNEKLMTPEMFSEILCDDLDLNPLTFVPAIASAIRQQIESY [I9D], which abundance fitness is on record?
A: -0.74 ± 0.2

Q: With SQPEVLVPPRLDMEIDGQKLRDAFTWNMNEKLMTPEMFSEILCDDLDLNPLTFVPAIASAIRQQIESY [I9P] as the variant, how does the abundance fitness read?
A: -0.094 ± 0.43

Q: With SQPEVLVPERLDMEIDGQKLRDAFTWNMNEKLMTPEMFSEILCDDLDLNPLTFVPAIASAIRQQIESY [I9E] as the variant, how does the abundance fitness read?
A: -0.904 ± 0.44
